Reference: patent US5534631, “Cellular factor ILF” (Board of Regents, The University of Texas System)

Tests used:
[1] = target: T1, GST/ILF fusion (Example 3) (Homo sapiens, UniProt Q01167 SEQ:1-540); assay: competition; 1-, 5-, 20-fold excess against IL-2 NFAT probe; details: tags: N-terminal GST (pGEX-3X)
[2] = target: T2, glutathione S-transferase (UniProt P08515 P08515:1-218); assay: EMSA; control; details: tags: pGEX-3X (Pharmacia), chain copies: 2
[3] = target: T3, GST/ILF delta1 (amino-terminal deletion) (Homo sapiens, UniProt Q01167 SEQ:97-540); assay: EMSA; 4 ug protein; details: tags: N-terminal GST (pGEX-3X)
[4] = target: T4, beta-galactosidase/ILF fusion (Homo sapiens, UniProt Q01167 SEQ:138-372); assay: competition; competes with HIV-LTR probe at 10- or 50-fold excess; details: tags: N-terminal beta-galactosidase (lambda gt11)
[5] = target: T5, GST/ILF amino and carboxyl deletion, fork head retained (Homo sapiens, UniProt Q01167 SEQ:97-367); assay: EMSA; construct naming (delta2/delta3) differs between legend and methods; details: tags: N-terminal GST (pGEX-3X)
[6] = target: T6, GST/ILF amino, carboxyl and fork head deletion (Homo sapiens, UniProt Q01167 SEQ:97-186); assay: EMSA; fork head deleted; construct naming differs between legend and methods; details: tags: N-terminal GST (pGEX-3X)
[7] = target: T4, beta-galactosidase/ILF fusion; assay: competition; up to 50-fold excess; details: tags: N-terminal beta-galactosidase (lambda gt11)
[8] = target: T1, GST/ILF fusion (Example 3); assay: competition; no significant competition (also SEQ 27); details: tags: N-terminal GST (pGEX-3X)
[9] = target: T2, glutathione S-transferase; assay: EMSA; control; details: tags: pGEX-3X (Pharmacia), chain copies: 2, label: 32P (when probe)
Excerpt: (§1) The constructs tested included a deletion of the amino terminus of ILF, a deletion of both the amino and carboxyl termini of ILF, or a deletion of the fork head domain in addition to the amino and carboxyl termini of ILF. Oligonucleotides corresponding to the distal ILF site in the HIV-LTR, the NFAT site in the IL-2 promoter, and an HIV-LTR fragment containing the distal ILF site were used in gel retardation analysis.
(§2) Figure 5C: FIG. 5. Gel retardation analysis of glutathione S-transferase/ILF fusions. Gel retardation analysis was performed with either ILF oligonucleotides (A), a fragment extending from −310 and −255 in the HIV-LTR (B), or NFAT oligonucleotides (C) and 4 μg of each of the glutathione S-transferase/ILF fusions. Lane 0, probe alone; lane 1, glutathione S-transferase (GST) protein alone; lane 2, a deletion of both the amino and carboxyl-termini in the GST/ILF fusion (ΔILF3); lane 3, a deletion of the ILF fork head DNA binding domain in addition to the amino and carboxyl termini in the GST/ILF fusion (ΔILF2); lane 4, an amino-terminal deletion of ILF in the GST/ILF fusion (ΔILF1).

[10] = target: T3, GST/ILF delta1 (amino-terminal deletion); assay: EMSA; 4 ug protein; details: tags: N-terminal GST (pGEX-3X); label: 32P (when probe)
Excerpt: as §1, §2

[11] = target: T5, GST/ILF amino and carboxyl deletion, …; assay: EMSA; 4 ug protein; details: tags: N-terminal GST (pGEX-3X); label: 32P (when probe)
Excerpt: as §1, §2

[12] = target: T6, GST/ILF amino, carboxyl and fork head …; assay: EMSA; fork head deleted; details: tags: N-terminal GST (pGEX-3X); label: 32P (when probe)
Excerpt: as §1, §2

[13] = target: T1, GST/ILF fusion (Example 3); assay: EMSA; self-competition observed; details: tags: N-terminal GST (pGEX-3X); label: 32P (when probe)
Description: Gel retardation of ILF with the IL-2 NFAT motif. (A) Oligonucleotides corresponding to the NFAT motif in the IL-2 promoter extending from −285 to −254 were end labeled with γP^32ATP and used in gel retardation analysis alone (lane 0), with glutathione-S-transferase (lane 1), or with a glutathione-S-transferase/ILF fusion protein (lanes 2–16). The specificity of binding was tested by competition with unlabeled oligonucleotides corresponding to the NFAT motif in the IL-2 promoter (lanes 2–4), sequences spanning −283 to −256 and −223 to −195 in the HIV-LTR which comprised distal (lanes 5–7) and proximal (lanes 8–10) NFAT motifs respectively, the hepatocyte nuclear factor HNF-3A binding site extending from −107 to −92 in the transthyretin promoter (lanes 11–13), and an AP-1 binding sequence extending from −103 to −83 in the early region 3 promoter (lanes 14–16). The unlabeled oligonucleotides were present in either an equimolar (lanes 2, 5, 8, 11, and 14), 5-fold (lanes 3, 6, 9, 12, and 15) or 20-fold (lanes 4, 7, 10, 13 and 16) molar excess of the labeled oligonucleotides. (B) Sequences of NFAT motifs in the IL-2 promoter and the distal and proximal regions of the HIV-LTR are shown.
Two complexes I and II were noted; the major complex (I) was due to full-length GST/ILF while the lower complex (II) was due to GST/ILF degradation products. […]

[14] = target: T4, beta-galactosidase/ILF fusion; assay: competition; complete competition; details: tags: N-terminal beta-galactosidase (lambda gt11)
[15] = target: T6, GST/ILF amino, carboxyl and fork head …; assay: EMSA; stated similar with proximal site; details: tags: N-terminal GST (pGEX-3X)
[16] = target: T3, GST/ILF delta1 (amino-terminal deletion); assay: EMSA; stated similar binding with proximal site; details: tags: N-terminal GST (pGEX-3X)
[17] = target: T5, GST/ILF amino and carboxyl deletion, …; assay: EMSA; stated similar binding with proximal site; details: tags: N-terminal GST (pGEX-3X)
[18] = target: T4, beta-galactosidase/ILF fusion; assay: competition; up to 50-fold excess; details: tags: N-terminal beta-galactosidase (lambda gt11); remark: listed apart in the source
Description: Figure 2: FIG. 2. Gel retardation analysis with β-galactosidase/ILF fusion protein. An HIV-LTR fragment extending from −310 to −255 was used in gel retardations with either β-galactosidase or β-galactosidase/ILF purified with anti-β-galactosidase sepharose chromatography. Lane 1, probe alone; lane 2, probe with 3 μg of β-galactosidase extract; lane 3, probe with 3 μg of β-galactosidase/ILF extract. Competition analysis with either a 10-fold (lanes 4, 6, 8, 10) or 50-fold (lanes 5, 7, 9, 11) molar excess of unlabeled oligonucleotides corresponding to ILF (lanes 4 and 5), NFAT (lanes 6 and 7), AP1 (lanes 8 and 9) and CREB (lanes 10 and 11) binding motifs are shown. Figure 3B: FIG. 3. Amino acid sequence of the ILF coding region. (A) A 543 amino acid open reading frame encoded by a portion of the ILF cDNA. The shaded region indicates the region of homology of ILF with the fork head and HNF-3A DNA binding domains. The circled region (GAGSSG) SEQ ID NO:12 contains homology with a nucleotide binding sequence, the boxed region (RKRRPR) SEQ ID NO:13 contains a potential nuclear localization signal, the underlined sequence (RTPLGPLSS) SEQ ID NO:14 is homologous to a region required for ubiquitin-mediated degradation, and the dotted line (NGT) indicates a potential N-glycosylation site. (B) The 3.0 kb ILF cDNA and the position of the 1629 bp open reading frame. […]

T5 sequence (Q01167 217-487, stated change not applied): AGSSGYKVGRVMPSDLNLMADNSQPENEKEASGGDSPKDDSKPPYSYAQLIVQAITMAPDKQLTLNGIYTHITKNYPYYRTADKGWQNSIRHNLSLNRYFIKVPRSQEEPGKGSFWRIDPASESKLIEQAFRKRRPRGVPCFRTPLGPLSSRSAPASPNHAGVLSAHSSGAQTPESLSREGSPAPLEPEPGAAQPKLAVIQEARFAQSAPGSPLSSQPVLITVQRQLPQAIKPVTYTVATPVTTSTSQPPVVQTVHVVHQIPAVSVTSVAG
T6 sequence (Q01167 217-306, stated change not applied): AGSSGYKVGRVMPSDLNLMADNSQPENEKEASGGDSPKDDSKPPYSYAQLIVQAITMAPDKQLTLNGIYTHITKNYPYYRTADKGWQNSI
T1 sequence (Q01167 121-660): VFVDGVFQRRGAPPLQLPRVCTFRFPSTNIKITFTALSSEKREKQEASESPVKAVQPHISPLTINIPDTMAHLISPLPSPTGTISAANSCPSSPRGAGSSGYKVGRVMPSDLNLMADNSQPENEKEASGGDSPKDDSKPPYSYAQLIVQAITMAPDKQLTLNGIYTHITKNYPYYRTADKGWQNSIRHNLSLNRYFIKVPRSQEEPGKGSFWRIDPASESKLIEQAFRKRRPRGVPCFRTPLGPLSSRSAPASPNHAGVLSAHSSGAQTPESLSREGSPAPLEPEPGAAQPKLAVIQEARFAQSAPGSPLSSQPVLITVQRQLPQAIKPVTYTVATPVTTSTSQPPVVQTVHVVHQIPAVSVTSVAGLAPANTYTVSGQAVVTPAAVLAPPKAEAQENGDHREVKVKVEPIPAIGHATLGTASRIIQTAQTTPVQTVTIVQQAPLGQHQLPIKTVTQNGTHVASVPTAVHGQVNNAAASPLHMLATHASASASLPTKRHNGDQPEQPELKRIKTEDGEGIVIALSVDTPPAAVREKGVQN
T3 sequence (Q01167 217-660, stated change not applied): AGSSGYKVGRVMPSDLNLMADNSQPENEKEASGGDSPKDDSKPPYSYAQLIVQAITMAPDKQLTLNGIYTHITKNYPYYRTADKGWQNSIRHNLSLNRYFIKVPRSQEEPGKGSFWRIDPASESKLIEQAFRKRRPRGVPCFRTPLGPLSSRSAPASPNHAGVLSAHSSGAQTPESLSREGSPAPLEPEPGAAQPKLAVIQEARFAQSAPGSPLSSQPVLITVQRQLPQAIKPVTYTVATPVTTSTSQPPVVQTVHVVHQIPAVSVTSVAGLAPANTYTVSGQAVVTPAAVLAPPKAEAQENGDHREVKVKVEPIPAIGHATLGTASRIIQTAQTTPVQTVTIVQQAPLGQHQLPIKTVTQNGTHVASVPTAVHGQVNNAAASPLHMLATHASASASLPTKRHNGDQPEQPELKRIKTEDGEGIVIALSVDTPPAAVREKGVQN
T4 sequence (Q01167 258-492): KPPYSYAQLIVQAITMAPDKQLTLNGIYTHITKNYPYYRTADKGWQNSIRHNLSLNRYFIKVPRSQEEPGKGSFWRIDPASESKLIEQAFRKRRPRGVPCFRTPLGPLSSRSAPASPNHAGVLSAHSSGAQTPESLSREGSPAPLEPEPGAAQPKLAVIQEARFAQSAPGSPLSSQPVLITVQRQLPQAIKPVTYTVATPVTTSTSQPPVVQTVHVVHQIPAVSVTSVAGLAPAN
T2 sequence (P08515 whole entry, one chain of several): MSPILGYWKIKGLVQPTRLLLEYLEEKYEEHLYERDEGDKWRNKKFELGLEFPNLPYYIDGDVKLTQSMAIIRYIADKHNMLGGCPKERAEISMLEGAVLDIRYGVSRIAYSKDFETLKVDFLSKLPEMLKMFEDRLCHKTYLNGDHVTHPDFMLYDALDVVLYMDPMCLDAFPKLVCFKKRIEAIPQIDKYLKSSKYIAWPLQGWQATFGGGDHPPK

B1: HIV-1 distal NFAT site (Example 3) (dsDNA)
DNA 1: GAAGAGGCCAATGAAGGAGAGAACAACA
DNA 2: TGTTGTTCTCTCCTTCATTGGCCTCTTC
B1: binds [1].

B2: HIV-1 proximal NFAT site (Example 3) (dsDNA)
DNA 1: GAGGACGCGGAGAAAGAAGTGTTAAGTGTG
DNA 2: CACACTTAACACTTCTTTCTCCGCGTCCTC
B2: binds [1].

B3: HIV-1 LTR distal ILF motif (-283 to -256) (dsDNA)
DNA 1: GAAGAGGCCAATGAAGGAGAGAACAACA
DNA 2: TGTTGTTCTCTCCTTCATTGGCCTCTTC
B3: no binding [2]; binds [3]; binds [4]. B3: binds [5]; no binding [6].

B4: AP1 site, adenovirus E3 promoter (-103 to -83) (dsDNA)
DNA 1: GAAGTTCAGATGACTAACTCA
DNA 2: TGAGTTAGTCATCTGAACTTC
B4: no binding [7]; no binding [8].

B5: IL-2 promoter NFAT motif (-285 to -254) (dsDNA)
DNA 1: AATTGGAGGAAAAACTGTTTCATACAGAAGGCGT
DNA 2: ACGCCTTCTGTATGAAACAGTTTTTCCTCCAATT
B5: no binding [9]; binds [10]; binds [11]. B5: no binding [12]; binds [13].

B6: HIV-1 LTR proximal ILF motif (-223 to -195) (dsDNA)
DNA 1: GAGGACGCGGAGAAAGAAGTGTTAGTGTG
DNA 2: CACACTAACACTTCTTTCTCCGCGTCCTC
B6: binds [14]; no binding [15]; binds [16]. B6: binds [17].

B7: CREB/ATF site, somatostatin promoter (-60 to -33) (dsDNA)
DNA 1: GGTTCCTCCTTGGCTGACGTCAGAGAGAGA
DNA 2: TCTCTCTCTGACGTCAGCCAAGGAGGAACC
B7: no binding [18].
